In article PMC7797033, “Single-molecule visualization of human RECQ5 interactions with single-stranded DNA recombination intermediates”:

Tests used:
[1] = biological target: Human wild-type (wt) RAD51 (human) (UniProt Q06609)
RAD51 = RAD51 (human, UniProt Q06609 1-339); experiment: BLI; 2 mM ATP, 2 mM Mg2+; 2 uM RAD51; BLI: 25 mM Tris-HCl pH 7.5, 50 mM KCl, 2 mM MgCl2, 200 ug/mL BSA, 0.05% Tween 20, 2 mM ATP, room temperature; curtain buffer not in the material; conditions: protein: recombinant; tags: none stated for BLI prep; chain copies: 10; label: 5' biotin
RAD51, sequence (Q06609 whole entry): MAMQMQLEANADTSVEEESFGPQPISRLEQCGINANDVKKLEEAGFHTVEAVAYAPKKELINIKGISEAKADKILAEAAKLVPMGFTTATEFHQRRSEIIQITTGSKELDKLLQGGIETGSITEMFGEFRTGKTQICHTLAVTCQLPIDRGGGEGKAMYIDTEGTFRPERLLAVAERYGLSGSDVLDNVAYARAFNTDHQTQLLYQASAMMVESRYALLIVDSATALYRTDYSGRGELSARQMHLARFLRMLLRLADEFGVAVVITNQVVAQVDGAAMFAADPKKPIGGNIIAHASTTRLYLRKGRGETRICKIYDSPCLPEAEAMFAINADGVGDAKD

Human wild-type (wt) RAD51 (human), sequence (Q06609 whole entry): as above

processivity of unlabeled RECQ5–F666A on RAD51–ssDNA (ssDNA curtains) [1] [nt] | translocation velocity of unlabeled RECQ5–F666A on RAD51–ssDNA (ssDNA curtains) [1] [nt/s] | Molecule | binding result (RAD51)
5200 | 28 | RECQ5–F666A (from UniProt O94762 1-991) (enzyme) | 
 |  | TTTTTTTTTTTTTTTTTTTTTTTTTTTTTTTTTTTTTTTTTTT (ssDNA) [dT43-mer] | binds
